{"source": "patent US20180057581A1", "about": "(MorphoSys, published 2018)", "binders": {"B1": {"name": "Camille (format not stated) (antibody, V domains shown)", "VH": "QVQLQQSGPGLVKPSQTLSLTCAISGESVSTSSAAWNWIRQSPSRGLEWLGRTYYRSKWKHEYAVSVKSRITINPDTSKNQFSLQLNSVTPEDTAVYYCARDRYYYSAFDYWGQGTLVTVSS", "VL": "QSALTQPASVSGSPGQSITISCTGTSSDVGGYNSVSWYQQHPGKAPKLLIYAVSNRPSGVSNRFSGSKSGNTASLTISGLQAEDEADYYCASYDERFTRVFGGGTKLTVLG", "notes": "also called Antibody Camille"}}, "key": {"[1]": {"target": "T1, Recombinant cynomolgus monkey sgM-CSF (cynomolgus (Macaca fascicularis), UniProt P09603 33-255 (human entry), limits assumed)", "T1 construct": "used also where only 'cynomolgus M-CSF' is printed (ELISA result, SET); also called cynomolgus sgM-CSF; cyno sgM-CSF", "T1 chain": "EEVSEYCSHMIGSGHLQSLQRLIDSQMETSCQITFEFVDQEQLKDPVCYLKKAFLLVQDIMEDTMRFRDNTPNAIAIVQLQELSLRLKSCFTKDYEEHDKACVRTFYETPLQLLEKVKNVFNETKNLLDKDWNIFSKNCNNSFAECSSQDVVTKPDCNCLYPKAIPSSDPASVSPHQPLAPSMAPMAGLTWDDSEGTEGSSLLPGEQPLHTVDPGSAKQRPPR", "assay": "ELISA"}, "[2]": {"target": "T2, Recombinant human sgM-CSF (human, UniProt P09603 33-255)", "T2 construct": "also called human secreted glycosylated M-CSF; Human M-CSF", "T2 sequence": "T1 chain with M186V, D192E", "assay": "Receptor binding assay, inhibition of human M-CSF binding to M-CSF receptor (competitor CSF1-R-Fc); Table 12 summary"}, "GM-CSF": {"target": "GM-CSF (Homo sapiens (Human), UniProt P04141 18-144)", "sequence (P04141 18-144 limits assumed)": "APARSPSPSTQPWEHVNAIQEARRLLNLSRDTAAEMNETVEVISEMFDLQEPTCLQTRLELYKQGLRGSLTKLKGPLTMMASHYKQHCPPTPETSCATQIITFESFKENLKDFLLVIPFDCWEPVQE", "assay": "not described (Table 12, criterion Binding)"}, "[3]": {"target": "Anti-human Fab (Dianova, # 109-005-097)", "assay": "MSD specificity profiling, coated protein, Camille at 100 nM", "experimental": "(§1) For this specificity profiling test the different proteins and controls were coated on two 384-well MSD plates with a concentration of 1 μg/ml at 4° C. over night. Plates were blocked with BSA and washed three times with PBS with 0.05% (v/v) Tween 20. Antibody samples were diluted to 100 nM and 10 nM in assay buffer (PBS with 0.5% (w/v) BSA, 0.05% (v/v) Tween 20). […] Samples and controls were incubated for three hours at room temperature. The plates were washed three times and 30 μl detection antibody (ECL-labeled anti-human Fab) were added per well and incubated for 1 h. After washing, MSD Read Buffer T with surfactant was added and electrochemiluminescence signals were detected using a Sector Imager 6000 (Meso Scale Discovery, Gaithersburg, Md., USA)."}, "Pepsinogen (pork)": {"target": "Pepsinogen (pork) (pork, UniProt P00791 16-385)", "sequence (P00791 16-385)": "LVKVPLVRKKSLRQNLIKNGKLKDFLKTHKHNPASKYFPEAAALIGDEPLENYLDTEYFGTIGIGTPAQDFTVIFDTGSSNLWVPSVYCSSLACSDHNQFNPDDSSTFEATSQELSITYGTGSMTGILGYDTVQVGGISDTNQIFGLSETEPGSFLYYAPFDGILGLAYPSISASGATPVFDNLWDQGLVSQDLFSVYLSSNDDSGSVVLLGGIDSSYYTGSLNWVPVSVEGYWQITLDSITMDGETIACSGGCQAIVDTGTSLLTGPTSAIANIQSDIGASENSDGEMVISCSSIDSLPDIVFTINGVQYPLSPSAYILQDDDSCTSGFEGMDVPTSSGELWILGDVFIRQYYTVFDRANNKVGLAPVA", "assay": "MSD specificity profiling, coated protein, Camille at 100 nM", "experimental": "as §1"}, "human M-CSF": {"target": "T3, human M-CSF (human, UniProt P09603 33-255, limits assumed)", "T3 construct": "also called M-CSF (human); CSF-1", "T3 sequence": "T1 chain with M186V, D192E", "assay": "MSD specificity profiling, coated protein, Camille at 100 nM", "experimental": "as §1"}, "Cytochrome c (cow)": {"target": "Cytochrome c (cow) (cow, UniProt P62894 2-105)", "sequence (P62894 2-105 limits assumed)": "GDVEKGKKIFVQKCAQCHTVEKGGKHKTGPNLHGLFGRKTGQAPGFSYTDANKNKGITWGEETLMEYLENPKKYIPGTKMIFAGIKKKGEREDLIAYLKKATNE", "assay": "MSD specificity profiling, coated protein, Camille at 100 nM", "experimental": "as §1"}}, "note": "Where a chain is given by its changes, count along the chain named.", "data": [{"binder": "B1", "values": [{"measurement": "ELISA fluorescence units", "setting": "[1]", "result": "> 35000", "unit": "units"}, {"measurement": "IC50", "setting": "[2]", "result": 4, "unit": "pM"}, {"measurement": "binding result", "setting": "GM-CSF", "result": "no binding"}, {"measurement": "signal normalized to reference antibody MOR03207", "setting": "[3]", "result": 1, "unit": "ratio"}, {"measurement": "signal normalized to reference antibody MOR03207", "setting": "Pepsinogen (pork)", "result": 1, "unit": "ratio"}, {"measurement": "signal normalized to reference antibody MOR03207", "setting": "human M-CSF", "result": 24, "unit": "ratio"}, {"measurement": "signal normalized to reference antibody MOR03207", "setting": "Cytochrome c (cow)", "result": 1, "unit": "ratio"}]}]}
